# T1: huNOV (human, UniProt P48745 32-357, limits assumed)
# T1 construct: also called human NOV (CCN3)
# T1 sequence (looked up): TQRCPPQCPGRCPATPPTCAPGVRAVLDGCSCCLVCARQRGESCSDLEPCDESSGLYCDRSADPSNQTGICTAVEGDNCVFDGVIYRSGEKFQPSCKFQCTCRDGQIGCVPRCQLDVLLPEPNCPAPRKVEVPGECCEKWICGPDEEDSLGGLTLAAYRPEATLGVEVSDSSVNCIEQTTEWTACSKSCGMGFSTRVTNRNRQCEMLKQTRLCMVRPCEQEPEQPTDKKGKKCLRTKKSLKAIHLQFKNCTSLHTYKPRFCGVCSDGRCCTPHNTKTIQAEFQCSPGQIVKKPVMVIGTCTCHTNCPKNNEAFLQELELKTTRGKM
# T2: huWISP-1 (human, UniProt O95388 23-367, limits assumed)
# T2 construct: also called human WISP-1 (CCN4)
# T2 sequence (looked up): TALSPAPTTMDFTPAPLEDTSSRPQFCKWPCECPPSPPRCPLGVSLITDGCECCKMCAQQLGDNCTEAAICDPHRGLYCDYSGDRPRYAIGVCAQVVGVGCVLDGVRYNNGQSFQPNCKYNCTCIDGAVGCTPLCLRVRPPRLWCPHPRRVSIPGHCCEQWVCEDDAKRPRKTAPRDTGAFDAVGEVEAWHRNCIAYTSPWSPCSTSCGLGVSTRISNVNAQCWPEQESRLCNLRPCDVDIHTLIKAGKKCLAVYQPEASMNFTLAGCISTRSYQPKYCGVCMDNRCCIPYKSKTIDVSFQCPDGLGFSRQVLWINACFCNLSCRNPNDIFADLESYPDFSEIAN
# T3: huWISP-3 (human, UniProt O95389 24-354, limits assumed)
# T3 construct: also called human WISP-3 (CCN6)
# T3 sequence (looked up): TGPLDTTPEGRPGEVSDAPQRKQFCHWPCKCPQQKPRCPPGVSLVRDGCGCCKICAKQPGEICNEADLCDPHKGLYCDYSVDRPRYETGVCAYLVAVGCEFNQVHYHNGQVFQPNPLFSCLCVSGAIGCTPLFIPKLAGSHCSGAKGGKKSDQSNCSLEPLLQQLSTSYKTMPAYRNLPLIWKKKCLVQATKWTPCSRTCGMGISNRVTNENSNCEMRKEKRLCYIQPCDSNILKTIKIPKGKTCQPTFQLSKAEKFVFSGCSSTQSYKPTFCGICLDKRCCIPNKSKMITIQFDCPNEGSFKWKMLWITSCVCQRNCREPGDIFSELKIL
# T4: recombinant rat CTGF protein (R&D Systems) (rat, UniProt Q9R1E9 25-347)
# T4 construct: Bought; also called rCTGF
# T4 sequence: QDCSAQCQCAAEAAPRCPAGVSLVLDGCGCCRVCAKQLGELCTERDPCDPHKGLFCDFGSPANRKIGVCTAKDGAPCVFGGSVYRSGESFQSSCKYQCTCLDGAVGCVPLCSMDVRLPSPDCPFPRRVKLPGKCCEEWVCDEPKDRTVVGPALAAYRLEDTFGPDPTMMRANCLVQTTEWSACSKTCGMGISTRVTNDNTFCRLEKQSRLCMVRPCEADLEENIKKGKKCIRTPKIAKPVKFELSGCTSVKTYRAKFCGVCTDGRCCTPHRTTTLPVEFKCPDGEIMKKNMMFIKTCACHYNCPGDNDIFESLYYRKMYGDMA
# B1: lipocalin mutein of SEQ ID NO: 3 (designed binder)
# chain: QDSTSDLIPAPPLSKVPLQQNFQDNQFHGKWYVVGRAGNNRLREDKDPPKMWATIYELKEDKSYNVTHVHFMTKKCRYIIDTFVPGSQPGEFTLGAIKSGPGMTSPLVRIVSTNYNQHAMVFFKWVNQNREWFTITLYGRTKELTSELKENFIRFSKSLGLPENHIVFPVPIDQCIDGSAWSHPQFEK
# notes: Parent hNGAL mutein; also called hNGAL mutein
# B2: lipocalin mutein of SEQ ID NO: 15 (designed binder)
# chain: QDSTSDLIPAPPLSKVPLQQNFQDNQFQGKWYVVGLAGNAILREDKQPAKMFATIYELKEDKSYDVTSVRFEAKSCKYTIKTFVPGSQPGEFTAGYIKSAPGQTSTLVRVVSTNYNQHAMVFFKHVTQNREIFVITLYGRTKELTSELKENFIRFSKSLGLPENHIVFPVPIDQCIDG
# notes: also called hNGAL mutein; not shown: C-terminal His-tag
# B3: lipocalin mutein of SEQ ID NO: 25 (designed binder)
# chain: QDSTSDLIPAPPLSKVPLQQNFQDNQFHGKWYVVGMAGNFRLREDKDPSKMGATIYELKEDKSYNVTQVQFDDKKCLYVIETFVPGSQPGEFTLGAIKSFPGFTSQLVRVVSTNYNQHAMVFFKKVYQNREVFWITLYGRTKELTSELKENFIRFSKSLGLPENHIVFPVPIDQCIDGSAWSHPQFEK
# notes: as for B1
# B4: lipocalin mutein of SEQ ID NO: 29 (designed binder)
# chain: QDSTSDLIPAPPLSKVPLQQNFQDNQFHGKWYVVGWAGNIKLREDKDPFKMSATIYELKEDKSYNVTEVVFEQKKCHYIIKTFVPGSQPGEFTLGDIKSPPGETSSLVRVVSTNYNQHAMVFFKKVFQNREFFWITLYGRTKELTSELKENFIRFSKSLGLPENHIVFPVPIDQCIDGSAWSHPQFEK
# notes: as for B1
# B5: lipocalin mutein of SEQ ID NO: 7 (designed binder)
# chain: QDSTSDLIPAPPLSKVPLQQNFQDNQFHGKWYVVGLAGNYGLRTDKRPSKMFATIYELKEDKSYDVTSVRFEQERCHYTIRTFVPGSQPGEFTTGSIKSRPGQTSSLVRVVSTNYNQHAMVFFKSVIQNREYFAITLYGRTKELTSELKENFIRFSKSLGLPENHIVFPVPIDQCIDGSAWSHPQFEK
# notes: as for B1
# B6: lipocalin mutein of SEQ ID NO: 9 (designed binder)
# chain: QDSTSDLIPAPPLSKVPLQQNFQDNQFHGKWYVVGLAGNKILRIDKQPAKMFATIYELKEDKSYDVTSVRFEARSCSYTIKTFVPGSQPGEFTAGNIKSAPGQTSTLVRVVSTNYNQHAMVFFKHVSQNRETFVITLYGRTKELTSELKENFIRFSKSLGLPENHIVFPVPIDQCIDGSAWSHPQFEK
# notes: as for B1
# Biological target: T1, huNOV
# Assay: ELISA, coated CCN protein
# Description: (§1) Binding of muteins to closely related proteins of CTGF was tested by an ELISA assay. In detail, a 384-well plate suitable for fluorescence measurements (Greiner FLUOTRAC™ 600, black flat bottom, high-binding) was coated with 20 μl of human CTGF or the other members of the CCN protein family at a concentration of 1 μg/ml in PBS over night at 4° C. After washing with PBS with 0.05% Tween 20, wells were blocked with 100 μl blocking buffer containing 0.1% Tween 20 and 2% BSA (PBS-T/BSA) for 1 h at room temperature. 20 μl of serially diluted muteins starting at 1000 nM were incubated in PBS-T/BSA for 1 h at room temperature (RT).
# (§2) The residual supernatants were discarded and 20 μl HRP-labeled anti-NGAL or anti-Strep-Tag antibody was added at a predetermined optimal concentration in PBS-T/BSA and incubated for 1 h at RT. After washing, 20 μl fluorogenic HRP substrate (QuantaBlu, Thermo) was added to each well, and the reaction was allowed to proceed for 2 to 60 minutes. The fluorescence intensity of every well on the plate was read using a fluorescence microplate reader (Tecan). When the signal for human CTGF approached saturation, the cross reactivity to the other proteins was assessed.
row,Binder,binding result
1,B1,no binding (tested: dilutions starting at 1000 nM)
2,B2,no binding (tested: dilutions starting at 1000 nM)
3,B3,no binding (tested: dilutions starting at 1000 nM)
4,B4,no binding (tested: dilutions starting at 1000 nM)
5,B5,no binding (tested: dilutions starting at 1000 nM)
6,B6,no binding (tested: dilutions starting at 1000 nM)

# Biological target: T2, huWISP-1
# Assay: ELISA, coated CCN protein
# Description: as §1, §2
row,Binder,binding result
1,B1,no binding (tested: dilutions starting at 1000 nM)
2,B2,no binding (tested: dilutions starting at 1000 nM)
3,B3,no binding (tested: dilutions starting at 1000 nM)
4,B4,no binding (tested: dilutions starting at 1000 nM)
5,B5,no binding (tested: dilutions starting at 1000 nM)
6,B6,no binding (tested: dilutions starting at 1000 nM)

# Biological target: T3, huWISP-3
# Assay: ELISA, coated CCN protein
# Description: as §1, §2
row,Binder,binding result
1,B1,no binding (tested: dilutions starting at 1000 nM)
2,B2,no binding (tested: dilutions starting at 1000 nM)
3,B3,no binding (tested: dilutions starting at 1000 nM)
4,B4,no binding (tested: dilutions starting at 1000 nM)
5,B5,no binding (tested: dilutions starting at 1000 nM)
6,B6,no binding (tested: dilutions starting at 1000 nM)

# Biological target: T5, recombinant human CTGF-Fc protein (Creative Biomart) (human)
# T5 construct: Bought; also called human CTGF with a human IgG1 Fc Tag
# Assay: SPR (Biacore)
# Outline: (§3)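 Lipocalin muteins injected at 25 °C over CTGF either Fc-tagged and captured by anti-human IgG-Fc (0.25-2.5 μg/mL in HBS-EP+, 180 s) or amine-coupled directly to a CM5 chip. Association 180 s, dissociation 900-3600 s, flow 30 μL/min.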
# T5 sequence (chain, as listed by the source limits assumed): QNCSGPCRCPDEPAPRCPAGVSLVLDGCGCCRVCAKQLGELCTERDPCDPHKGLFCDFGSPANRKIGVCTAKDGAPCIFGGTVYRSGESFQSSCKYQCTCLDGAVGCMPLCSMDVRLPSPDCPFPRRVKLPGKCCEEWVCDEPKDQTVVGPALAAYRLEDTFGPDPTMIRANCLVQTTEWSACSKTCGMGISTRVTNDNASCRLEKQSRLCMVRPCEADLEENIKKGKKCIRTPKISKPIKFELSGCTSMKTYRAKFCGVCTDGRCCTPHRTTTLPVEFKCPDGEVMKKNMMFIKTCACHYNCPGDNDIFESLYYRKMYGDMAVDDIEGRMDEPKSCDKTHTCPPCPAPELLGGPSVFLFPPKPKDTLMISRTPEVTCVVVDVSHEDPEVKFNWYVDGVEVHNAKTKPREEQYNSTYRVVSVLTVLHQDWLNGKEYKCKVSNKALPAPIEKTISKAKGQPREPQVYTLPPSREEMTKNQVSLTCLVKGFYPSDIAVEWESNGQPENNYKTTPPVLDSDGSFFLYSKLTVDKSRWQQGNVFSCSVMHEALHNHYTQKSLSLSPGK
Binder,Kd [nM],koff [s⁻¹],kon [M⁻¹ s⁻¹]
B1,37.5,0.00749,200000
B2,0.547,4.47e-05,81700
B3,9.27,0.000248,26800
B4,11.2,0.00112,100000
B5,60.2,0.00587,97600
B6,12.8,0.00102,79800

# Biological target: T4, recombinant rat CTGF protein (R&D …)
# Assay: SPR (Biacore)
# Outline: as §3
Binder,Kd [nM],koff [s⁻¹],kon [M⁻¹ s⁻¹]
B1,39.3,0.0117,297000
B2,0.95,0.000114,120000
B3,27.7,0.00129,46500
B4,18,0.00317,176000
B5,62.8,0.00754,120000
B6,16,0.00169,105000
